Experimental data: article PMC4301630, “Dynamic Growth and Shrinkage Govern the pH Dependence of RecA Filament Stability” (PLoS ONE, 2015)

Molecular target: the molecule itself
Experiment: single-molecule FRET (Cy3 and Cy5 on the DNA, TIRF microscopy); partial duplex DNA with a 60 nt 3' single-stranded overhang immobilised on a PEG-coated quartz slide; dyes 10 nt apart at the 5' side of the overhang report monomers joining and leaving the 5' end of the RecA filament; 1 uM RecA (0.5 uM RecAΔC17), 1 mM ATP, 10 mM Mg(OAc)2, 100 mM NaOAc, 10 mM Tris-OAc, Mes or Mops, pH 6.0 to 8.0, room temperature; …

B1: RecA protein (wild type) (natural protein, UniProt P0A7G6 1-353, looked up)
chain: MAIDENKQKALAAALGQIEKQFGKGSIMRLGEDRSMDVETISTGSLSLDIALGAGGLPMGRIVEIYGPESSGKTTLTLQVIAAAQREGKTCAFIDAEHALDPIYARKLGVDIDNLLCSQPDTGEQALEICDALARSGAVDVIVVDSVAALTPKAEIEGEIGDSHMGLAARMMSQAMRKLAGNLKQSNTLLIFINQIRMKIGVMFGNPETTTGGNALKFYASVRLDIRRIGAVKEGENVVGSETRVKVVKNKIAAPFKQAEFQILYGEGINFYGELVDLGVKEKLIEKAGAWYSYKGEKIGQGKANATAWLKDNPETAKEIEKKVRELLLSNPNSTPDFSVDDSEGVAETNEDF
notes: RecA protein, wild type, bought from New England Biolabs; Forms helical filaments of many monomers on single-stranded DNA with ATP or ATPγS; the number of copies in the filament is not fixed; also called wild type RecA; source: bought: New England Biolabs, used without further purification
B1: binds.
